Results published in patent US8106154B2, “Nitrogen-based linkers for attaching modifying groups to polypeptides and other macromolecules” (Affymax, Inc., priority 2007, dated 2012).

Tests used:
Type in all cases: cell-based
[1] = tested on: primary human bone marrow pluripotent stem cells
Experimental: EPO-R signaling stimulates the differentiation of bone marrow stem cells into proliferating red blood cell presursors. This assay measured the ability of test peptides to stimulate the proliferation and differentiation of red blood cell precursors from primary human bone marrow pluripotent stem cells. Test peptides were added to cultures of human bone marrow cells, and the cells are incubated for 16 days. Thereafter, the number of red blood cell colonies were counted. The concentration of test peptide at which the number of formed colonies is 90% of maximum, relative to that observed with EPO, was recorded as the EC90.

human EPO-R [2] = biological target: T1, human EPO-R (Homo sapiens, UniProt P19235); assay: Reporter assay (fos promoter-driven luciferase); conditions: murine pre-B-cell line expressing human EPO-R with luciferase reporter; 4 hr incubation; half-maximal relative to EPO
T1 construct: expressed in transfected cells; host or cells: murine pre-B-cell line
T1 sequence (P19235 25-508): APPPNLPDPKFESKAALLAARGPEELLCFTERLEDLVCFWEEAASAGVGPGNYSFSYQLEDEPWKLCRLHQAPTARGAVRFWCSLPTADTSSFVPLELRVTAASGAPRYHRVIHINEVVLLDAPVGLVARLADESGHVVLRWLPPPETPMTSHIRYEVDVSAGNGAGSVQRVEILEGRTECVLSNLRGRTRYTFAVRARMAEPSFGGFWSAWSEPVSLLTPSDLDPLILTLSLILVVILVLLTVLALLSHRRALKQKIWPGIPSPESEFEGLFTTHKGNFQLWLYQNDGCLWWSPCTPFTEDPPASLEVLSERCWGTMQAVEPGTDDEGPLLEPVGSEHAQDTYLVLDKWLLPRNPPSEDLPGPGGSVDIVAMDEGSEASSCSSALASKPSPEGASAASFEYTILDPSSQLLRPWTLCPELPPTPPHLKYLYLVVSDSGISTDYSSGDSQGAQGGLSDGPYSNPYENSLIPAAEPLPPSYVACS
Source text: This assay was based upon a murine pre-B-cell line transfected to express human EPO-R and further transfected with a fos promoter-driven luciferase reporter gene construct. Upon exposure to EPO or another EPO-R agonist, such cells respond by synthesizing luciferase. Luciferase causes the emission of light upon addition of its substrate luciferin. Thus, the level of EPO-R activation in such cells may be quantitated via measurement of luciferase activity.
The activity of a test peptide was measured by adding serial dilutions of the test peptide to cells, which were then incubated for 4 hr. After incubation, luciferin substrate was added to the cells, and light emission was measured. The concentration of test peptide that results in a half-maximal emission of light, relative to that observed with EPO, was recorded as the EC50.

human EPO-R [3] = biological target: T1, human EPO-R; assay: Proliferation assay (MTT); conditions: murine pre-B-cell line expressing human EPO-R, 48 hours incubation, half-maximal relative to EPO
Experimental: This assay was based upon a murine pre-B-cell line transfected to express human EPO-R. Proliferation of this cell line is dependent on EPO-R activation. The degree of cell proliferation was quantitated using MTT, where the signal in the MTT assay is proportional to the number of viable cells. The activity of a test peptide was measured by adding serial dilutions of the test peptide to cells, which were then incubated for 48 hours. After incubation, MTT was added to the cells, and absorbance was measured. The concentration of test peptide that results in a half-maximal absorbance, relative to that observed with EPO, was recorded as the EC50.

| Molecule | EC90 [1] [nM] | EC50 (human EPO-R [2]) [nM] | EC50 (human EPO-R [3]) [nM] |
| --- | --- | --- | --- |
| CC[C@H](C)[C@@H]1NC(=O)[C@@H]2CCCN2C(=O)CNC(=O)[C@H](CCSC)NC(=O)[C@H](Cc2c[nH]cn2)NC(=O)[C@@H](NC(=O)[C@H](C)NC(=O)[C@H](Cc2ccc(O)cc2)NC(=O)[C@H](CC(C)C)NC(=O)CNC(=O)CNC(C)=O)CSSC[C@@H](C(=O)N[C@@H](CCC(N)=O)C(=O)N2CCC[C@H]2C(=O)N[C@@H](CC(C)C)C(=O)N[C@@H](CCCNC(=N)N)C(=O)N(C)CC(=O)N[C@@H](CCCCNC(=O)CN(CC(=O)NCCCC[C@H](NC(=O)CN(C)C(=O)[C@H](CCCNC(=N)N)NC(=O)[C@H](CC(C)C)NC(=O)[C@@H]2CCCN2C(=O)[C@H](CCC(N)=O)NC(=O)[C@@H]2CSSC[C@H](NC(=O)[C@H](C)NC(=O)[C@H](Cc3ccc(O)cc3)NC(=O)[C@H](CC(C)C)NC(=O)CNC(=O)CNC(C)=O)C(=O)N[C@@H](Cc3c[nH]cn3)C(=O)N[C@@H](CCSC)C(=O)NCC(=O)N3CCC[C@H]3C(=O)N[C@@H]([C@@H](C)CC)C(=O)N[C@@H]([C@@H](C)O)C(=O)N[C@@H](Cc3cccc4ccccc34)C(=O)N[C@@H](C(C)C)C(=O)N2)C(N)=O)C(=O)CCCC(=O)N(CCN)CCN)C(N)=O)NC(=O)[C@H](C(C)C)NC(=O)[C@H](Cc2cccc3ccccc23)NC(=O)[C@H]([C@@H](C)O)NC1=O [Example 8 peptide (non-PEGylated)] | 0.026 | – | – |
| Compound V: As Example 10 but peptide monomer Ac-GGLYACHYGPIT(Nal)VCQPLR(MeG)K, SEQ ID NO: 23 (GGLYACHYGPITXVCQPLRXK; not fully specified; conjugate chemistry not built) | – | 0.69 | 0.44 |
